Assay results reported in patent US20070105771A1 (Y S THERAPEUTICS, published 2007).

Assays:
[1] = target: T1, Purified recombinant human CD26 (rhDipeptidyl peptidase IV), R&D Systems CAT #1180-SE (human, UniProt P27487 29-766); assay: SPR (Biacore), IgG1
T1 construct: Bought recombinant protein; also called hu-CD26; soluble human CD26
Description: Fabs produced in E. coli as described below were diluted in PBS in a concentration of ˜0.5 μM for the assay. A typical recording included a 3 minute period of injection of the Fab followed by a period of 15 minutes of dissociation, and analysis was performed based on the raw data of the binding curves accordingly.
Analyses thereof were performed using Biacore® as described in Example 1, excepting the binding partners were the rhuMAbs noted above.

[2] = target: T2, human CD26-derived 13 mer peptide 107 (human); assay: peptide microarray
T2 peptide: GAVNPTVKFFVVN
Description: (§1) The overnight incubation was followed by three washings with each of PBS buffer pH 7.5 and water. The microarrays were then scanned using ArrayWorx-Microarray Scanner.
(§2) The SPOT recognition software package ArrayPro was used for data analysis. The mean of signal intensities from 3 identical subarrays on each microarray image was used for data evaluation.

[3] = target: T3, human CD26-derived 13 mer peptide 49 (human); assay: peptide microarray
T3 construct: also called TEERJPNNTQWVT
T3 peptide: TEERIPNNTQWVT
Description: as §1, §2

[4] = target: T4, human CD26-derived 13 mer peptide 32 (human); assay: peptide microarray
T4 peptide: DGQFILLEYNYVK
Description: as §1, §2

[5] = target: T5, human CD26-derived 13 mer peptide 21 (human); assay: peptide microarray
T5 peptide: VFLENSTFDEFGH
Description: as §1, §2

[6] = target: T6, human CD26-derived 13 mer peptide 55 (human); assay: peptide microarray
T6 peptide: TWSPVGHKLAYVW
Description: as §1, §2

[7] = target: T7, human CD26-derived 13 mer peptide 54 (human); assay: peptide microarray
T7 peptide: WVTWSPVGHKLAY
Description: as §1, §2

[8] = target: T8, human CD26-derived 13 mer peptide 65 (human); assay: peptide microarray
T8 peptide: IEPNLPSYRITWT
Description: as §1, §2

[9] = target: T9, human CD26-derived 13 mer peptide 76 (human); assay: peptide microarray
T9 peptide: ITDWVYEEEVFSA
Description: as §1, §2

[10] = target: T10, human CD26-derived 13 mer peptide 20 (human); assay: peptide microarray
T10 peptide: SSVFLENSTFDEF
Description: as §1, §2

[11] = target: T11, human CD26-derived 13 mer peptide 87 (human); assay: peptide microarray
T11 peptide: GTFLAYAQFNDTE
Description: as §1, §2

[12] = target: T12, human CD26-derived 13 mer peptide 19 (human); assay: peptide microarray
T12 peptide: GNSSVFLENSTFD
Description: as §1, §2

[13] = target: T13, human CD26-derived 13 mer peptide 6 (human); assay: peptide microarray
T13 peptide: YSLRWISDHEYLY
Description: as §1, §2

[14] = target: T14, human CD26-derived 13 mer peptide 42 (human); assay: peptide microarray
T14 peptide: ASYDIYDLNKRQL
Description: as §1, §2

[15] = target: T15, human CD26-derived 13 mer peptide 39 (human); assay: peptide microarray
T15 peptide: WRHSYTASYDIYD
Description: as §1, §2

[16] = target: T16, human CD26-derived 13 mer peptide 60 (human); assay: peptide microarray
T16 peptide: YVWNNDIYVKIEP
Description: as §1, §2

[17] = target: T17, human CD26-derived 13 mer peptide 47 (human); assay: peptide microarray
T17 peptide: RQLITEERIPNNT
Description: as §1, §2

[18] = target: T18, human CD26-derived 13 mer peptide 129 (human); assay: peptide microarray
T18 peptide: TWATQERISLQWL
Description: as §1, §2

[19] = target: T19, human CD26-derived 13 mer peptide 95 (human); assay: peptide microarray
T19 peptide: IEYSFYSDESLQY
Description: as §1, §2

[20] = target: T20, human CD26-derived 13 mer peptide 112 (human); assay: peptide microarray
T20 peptide: VVNTDSLSSVTNA
Description: as §1, §2

[21] = target: T21, human CD26-derived 13 mer peptide 25 (human); assay: peptide microarray
T21 peptide: DEFGHSINDYSIS
Description: as §1, §2

[22] = target: T22, human CD26-derived 13 mer peptide 90 (human); assay: peptide microarray
T22 peptide: AQFNDTEVPLIEY
Description: as §1, §2

[23] = target: T23, human CD26-derived 13 mer peptide 85 (human); assay: peptide microarray
T23 peptide: WSPNGTFLAYAQF
Description: as §1, §2

[24] = target: T24, human CD26-derived 13 mer peptide 73 (human); assay: peptide microarray
T24 peptide: DIIYNGITDWVYE
Description: as §1, §2

[25] = target: T25, human CD26-derived 13 mer peptide 105 (human); assay: peptide microarray
T25 peptide: YPKAGAVNPTVKF
Description: as §1, §2

[26] = target: T26, human CD26-derived 13 mer peptide 18 (human); assay: peptide microarray
T26 peptide: EYGNSSVFLENST
Description: as §1, §2

[27] = target: T27, human CD26-derived 13 mer peptide 71 (human); assay: peptide microarray
T27 peptide: TGKEDIIYNGITD
Description: as §1, §2

[28] = target: T28, human CD26-derived 13 mer peptide 3 (human); assay: peptide microarray
T28 peptide: TYRLKLYSLRWIS
Description: as §1, §2

[29] = target: T29, human CD26-derived 13 mer peptide 74 (human); assay: peptide microarray
T29 peptide: IYNGITDWVYEEE
Description: as §1, §2

[30] = target: T30, human CD26-derived 13 mer peptide 48 (human); assay: peptide microarray
T30 peptide: LITEERIPNNTQW
Description: as §1, §2

[31] = target: T31, human CD26-derived 13 mer peptide 131 (human); assay: peptide microarray
T31 peptide: QERISLQWLRRIQ
Description: as §1, §2

[32] = target: T32, human CD26-derived 13 mer peptide 27 (human); assay: peptide microarray
T32 peptide: HSINDYSISPDGQ
Description: as §1, §2

[33] = target: T33, human CD26-derived 13 mer peptide 86 (human); assay: peptide microarray
T33 peptide: PNGTFLAYAQFND
Description: as §1, §2

[34] = target: T34, human CD26-derived 13 mer peptide 83 (human); assay: peptide microarray
T34 peptide: SALWWSPNGTFLA
Description: as §1, §2

[35] = target: T35, human CD26-derived 13 mer peptide 88 (human); assay: peptide microarray
T35 peptide: FLAYAQFNDTEVP
Description: as §1, §2

[36] = target: T36, human CD26-derived 13 mer peptide 80 (human); assay: peptide microarray
T36 peptide: EVFSAYSALWWSP
Description: as §1, §2

[37] = target: T37, human CD26-derived 13 mer peptide 109 (human); assay: peptide microarray
T37 peptide: PTVKFFVVNTDSL
Description: as §1, §2

[38] = target: T1, Purified recombinant human CD26 …; assay: SPR (Biacore)

T1 sequence (P27487 29-766 limits assumed): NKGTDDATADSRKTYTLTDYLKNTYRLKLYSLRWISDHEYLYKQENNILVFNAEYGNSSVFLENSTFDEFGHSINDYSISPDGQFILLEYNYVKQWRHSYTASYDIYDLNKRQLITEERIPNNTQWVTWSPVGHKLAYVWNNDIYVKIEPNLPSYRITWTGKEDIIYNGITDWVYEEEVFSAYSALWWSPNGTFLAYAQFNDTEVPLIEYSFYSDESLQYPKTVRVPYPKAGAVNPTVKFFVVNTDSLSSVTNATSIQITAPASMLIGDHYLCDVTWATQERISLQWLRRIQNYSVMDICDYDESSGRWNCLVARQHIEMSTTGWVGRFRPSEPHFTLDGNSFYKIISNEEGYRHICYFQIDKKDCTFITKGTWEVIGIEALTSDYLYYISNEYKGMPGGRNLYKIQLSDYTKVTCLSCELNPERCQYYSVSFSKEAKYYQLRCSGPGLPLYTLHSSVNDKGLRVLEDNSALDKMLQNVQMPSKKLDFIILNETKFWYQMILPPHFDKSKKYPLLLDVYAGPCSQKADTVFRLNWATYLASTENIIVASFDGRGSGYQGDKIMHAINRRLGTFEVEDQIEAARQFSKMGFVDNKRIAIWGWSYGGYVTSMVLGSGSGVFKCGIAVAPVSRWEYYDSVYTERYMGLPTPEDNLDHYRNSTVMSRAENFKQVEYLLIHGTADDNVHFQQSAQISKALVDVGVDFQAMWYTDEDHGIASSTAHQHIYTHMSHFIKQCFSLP

B1: rhuMAb 411 (antibody, human IgG1, kappa, V domains shown)
VH: EVQLVESGAGVKQPGGTLRLTCTASGFSLTTYGVHWVRQAPGKGLEWVGVIWGDGRTDYDAAFMSRVTISKDTSKSTVYLQMNSLRAEDTAVYYCMRNRHDWFDYWGQGTTVTVSS
VL: DILLTQSPSSLSATPGERATITCRASQGIRNNLNWYQQKPGQAPRLLIYYSSNLQSGVPSRFSGSGSGTDFTLTISRLQPEDVAAYYCQQSIKLPFTFGSGTKVEIKR
notes: also called X411
**Q.** What does the source list for B1?
**A.** -fold against rhuMAb 409 [1]: 3.7; Kd [1]: 0.22 nM; Mean Signal Value [2]: 10.6; Mean Signal Value [3]: 0.962; Mean Signal Value [4]: 0.0192; Mean Signal Value [5]: 0.197; Mean Signal Value [6]: 124; Mean Signal Value [7]: 13; Mean Signal Value [8]: 40.8; Mean Signal Value [9]: 0.0337; Mean Signal Value [10]: 0.0577; Mean Signal Value [11]: 0.0288; Mean Signal Value [12]: 0; Mean Signal Value [13]: 97.5; Mean Signal Value [14]: 0; Mean Signal Value [15]: 55.7; Mean Signal Value [16]: 0.0769; Mean Signal Value [17]: 0; Mean Signal Value [18]: 23.3; Mean Signal Value [19]: 6.14; Mean Signal Value [20]: 0; Mean Signal Value [21]: 0; Mean Signal Value [22]: 0; Mean Signal Value [23]: 1.02; Mean Signal Value [24]: 33.6; Mean Signal Value [25]: 0; Mean Signal Value [26]: 0; Mean Signal Value [27]: 0; Mean Signal Value [28]: 0.726; Mean Signal Value [29]: 0; Mean Signal Value [30]: 12.1; Mean Signal Value [31]: 5.25; Mean Signal Value [32]: 0.00481; Mean Signal Value [33]: 0.524; Mean Signal Value [34]: 3.64; Mean Signal Value [35]: 0; Mean Signal Value [36]: 17.7; Mean Signal Value [37]: 0; Kd [38]: 0.244 nM; koff [38]: 6.63e-05 s⁻¹; kon [38]: 272000 M⁻¹ s⁻¹
